Measured values reported in US20220267379A1, “NOVEL INHIBITORS OF […] AND USES THEREOF” (Ecole Polytechnique Federale de Lausanne (EPFL), priority 2019, published 2022).
Positions of bridges follow the written chain, without caps; N, C: chain ends. Non-standard residues stand in square brackets, D forms with d. Chains are numbered I, II in the order given. No end group written: not given here. *: point of attachment. Palmitoyl = CCCCCCCCCCCCCCCC(=O)*; hArg = N=C(N)NCCCC[C@H](N)C(=O)O; Nle = CCCC[C@H](N)C(=O)O

Key:
[1] = molecular target: T1, human Kallikrein-related peptidase 7 (hKLK7) (human), P49862; experiment: enzyme inhibition; pyridine linker; conditions: modification not given
Target sequence in this assay (P49862 30-253): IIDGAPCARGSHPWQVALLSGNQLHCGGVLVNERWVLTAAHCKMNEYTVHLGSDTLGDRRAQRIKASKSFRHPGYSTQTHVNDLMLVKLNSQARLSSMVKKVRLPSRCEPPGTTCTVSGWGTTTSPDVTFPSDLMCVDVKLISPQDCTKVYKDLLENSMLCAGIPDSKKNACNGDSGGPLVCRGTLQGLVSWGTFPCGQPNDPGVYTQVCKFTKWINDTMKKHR

[2] = molecular target: human Kallikrein-related peptidase 5 (hKLK5) (human), Q9Y337; experiment: enzyme inhibition; 2,6-bis(bromomethyl)pyridine linker; conditions: modification not given
human Kallikrein-related peptidase 5 (hKLK5) (human), Q9Y337, sequence (Q9Y337 67-293): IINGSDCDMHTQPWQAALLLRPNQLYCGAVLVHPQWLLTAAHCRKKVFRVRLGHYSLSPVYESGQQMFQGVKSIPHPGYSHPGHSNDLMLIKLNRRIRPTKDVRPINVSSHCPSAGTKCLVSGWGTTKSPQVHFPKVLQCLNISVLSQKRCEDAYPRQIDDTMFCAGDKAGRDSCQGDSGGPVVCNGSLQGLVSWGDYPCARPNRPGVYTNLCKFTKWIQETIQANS

[3] = molecular target: T1, human Kallikrein-related peptidase 7 …; experiment: as above; conditions: modification not given
Target sequence in this assay (P49862 30-253): as the sequence (P49862 30-253) above

[4] = molecular target: T1, human Kallikrein-related peptidase 7 …; experiment: enzyme inhibition; ketone linker; conditions: modification not given
Target sequence in this assay (P49862 30-253): as above

[5] = molecular target: human serum albumin (HSA) (human), P02768; experiment: fluorescence polarization
[6] = molecular target: T1, human Kallikrein-related peptidase 7 …; experiment: substrate-based activity assay
Target sequence in this assay (P49862 30-253 limits assumed): as the sequence (P49862 30-253) above

[7] = molecular target: T1, human Kallikrein-related peptidase 7 …; experiment: enzyme inhibition; 1,3-dibromoacetone linker; conditions: modification not given
Target sequence in this assay (P49862 30-253): as above

B1: 089 (peptide)
chain: PCLYLSCP
[1]
  Ki: 50 nM

B2: 003 (peptide)
chain: ACTREYNPQCANPQCLCH
[2]
  Ki: 6 nM

B3: 109 (peptide)
chain: PCLYLAC
[1]
  Ki: 19 nM

B4: 088 (peptide)
chain: PCLYLTCS
[1]
  Ki: 52 nM

B5: 007 (peptide)
chain: RCDSSQCMQGQCLYRSCP
[3]
  Ki: 94 nM

B6: 095 (peptide)
chain: PCLYLSRCS
[4]
  Ki: 90 nM

B7: 112 (peptide)
chain: PCLYLAQCS
[4]
  Ki: 36 nM

B8: 009 (peptide)
chain: QCLYIACPSAAKCDNGCQ
[3]
  Ki: 32 nM

B9: 087 (peptide)
chain: PCLYLACS
[1]
  Ki: 17.5 nM

B10: KLK7 inhibitor 278-tag (final KLK7 inhibitor) (peptide)
peptide 1: PCLY[Nle]A[hArg]CGKG
peptide 2: EYEK(Palmitoyl)EYE
modifications: bridge I:2-I:8; not fully specified (some residues, N-terminus, bridges); also: chain 2 (albumin tag) attached via PEG2 to Lys10 side chain of chain 1 (branched)
[5]
  Kd: 164 nM
[6]
  Ki: 7.4 nM

B11: 008 (peptide)
chain: HCRKGLDRCPQCLYRTCS
[3]
  Ki: 66 nM

B12: 111 (peptide)
chain: PCLYMARCS
[4]
  Ki: 10 nM

B13: 080 (peptide)
chain: PCLYLSCS
[1]
  Ki: 29.4 nM

B14: 086 (peptide)
chain: PCLYRSCS
[1]
  Ki: 53 nM

B15: 012 (peptide)
chain: FCLWPWCQPPEACPSQCE
[7]
  Ki: > 1000 nM

B16: 081 (peptide)
chain: QCLYLSCS
[1]
  Ki: 12 nM

B17: 082 (peptide)
chain: RCLYLSCS
[1]
  Ki: 8.8 nM
